The target of the assay is endogenous PKM2 (HeLa cells) (human (endogenous in HeLa)) (UniProt P14618). Briefly: SEC; gel chromatography (Superdex 200, cold PBS, 4 °C, 0.3 mL/min) of extracts of HeLa cells with vector, FOXM1A or FOXM1D; fractions analysed by western blot. (SEC sorts molecules by how far they enter the pores of the column.)

Chain of endogenous PKM2 (HeLa cells), P14618 1-531 (enzyme; other documents disagree on this pair) (P14618 whole entry): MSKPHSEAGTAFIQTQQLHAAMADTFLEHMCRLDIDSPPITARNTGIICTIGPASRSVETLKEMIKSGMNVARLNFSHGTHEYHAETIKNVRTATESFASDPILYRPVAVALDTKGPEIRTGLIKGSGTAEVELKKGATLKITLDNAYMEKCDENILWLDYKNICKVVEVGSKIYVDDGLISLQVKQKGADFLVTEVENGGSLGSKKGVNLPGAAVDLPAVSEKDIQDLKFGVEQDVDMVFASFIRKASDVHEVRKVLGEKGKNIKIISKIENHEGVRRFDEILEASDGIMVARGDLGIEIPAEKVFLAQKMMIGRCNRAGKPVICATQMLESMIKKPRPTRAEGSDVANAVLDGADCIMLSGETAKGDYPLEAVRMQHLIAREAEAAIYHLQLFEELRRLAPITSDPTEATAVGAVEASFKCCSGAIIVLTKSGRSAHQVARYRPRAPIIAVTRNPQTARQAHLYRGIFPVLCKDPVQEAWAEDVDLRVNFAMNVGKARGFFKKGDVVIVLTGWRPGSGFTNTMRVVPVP

By stoichiometry N is commonly meant the number of molecules, sites or subunits per partner or assembly. The substance “endogenous PKM2 (HeLa cells), P14618 1-531 (enzyme; other documents disagree on this pair)” displayed a stoichiometry N of 2.

These data come from article PMC8096781.
